Measurements as given in paper PMC4285326, “Structure and interactions of the Bacillus subtilis sporulation inhibitor of DNA replication, SirA, with domain I of DnaA” (Molecular Microbiology, 2014).

B1: SirA (sporulation inhibitor of DNA replication), Bacillus subtilis (natural protein, B. subtilis, UniProt P45707 1-148, looked up)
chain: MERHYYTYLIKEEFANHYFGRESVMFELFQDYHWTSLEKQQYEMTEKQIQYITQPIPILHMHQRLKMNLNKTDYRQLDYIYRIALPKAKGHATFMMKEHMIEIVASGDYEAETIFFEVLRKVSPCFLAMDFNSKRYGWLNPVKERNFV
modifications: 2-mercaptoethanol linked through a disulphide bond to Cys125 (seen in the crystal and by mass spectrometry)
notes: SirA, B. subtilis, amplified from genomic DNA, untagged; model has residues 2-141, Met1 and residues 142-148 disordered; Soluble only when coexpressed with DnaA^DI; A selenomethionine-substituted form was also crystallised for phasing; also called wild type SirA; native SirA; source: E. coli BL21 (DE3), coexpressed with His-DnaA^DI from pET-YSBLIC3C-DnaA^DISirA
B3: His-tagged DnaA domain I (His-DnaA^DI), Bacillus subtilis (domain or fragment, B. subtilis, UniProt P05648 1-82, looked up)
chain: MENILDLWNQALAQIEKKLSKPSFETWMKSTKAHSLQGDTLTITAPNEFARDWLESRYLHLIADTIYELTGEELSIKFVIPQ
notes: DnaA, B. subtilis, domain I (N-terminal domain); residues 1-81 defined in the crystal, C-terminal Gln82 disordered; 3C protease cleavable N-terminal His-tag, not cleaved in these experiments; also called His-tagged DnaA^DI; wild type DnaA^DI; source: E. coli BL21 (DE3), coexpressed with SirA from pET-YSBLIC3C-DnaA^DISirA; not shown: His6, N-terminal, kept
B6: DnaA domain I (DnaA^DI), Bacillus subtilis, His-tag removed (domain or fragment, B. subtilis)
chain: GPAMENILDLWNQALAQIEKKLSKPSFETWMKSTKAHSLQGDTLTITAPNEFARDWLESRYLHLIADTIYELTGEELSIKFVIPQ
notes: DnaA, B. subtilis, domain I (N-terminal domain); residues 1-81 defined in the crystal, C-terminal Gln82 disordered; Calculated molecular mass 9.7 kDa; also called N-terminal domain of DnaA; not shown: His6, N-terminal, cleaved

How the values were obtained:
[1] = molecular target: B6; assay: SEC-MALS; Superdex 75 HR 10/30, 50 mM Tris pH 8.5, 200 mM KCl, 0.5 ml min^-1; DnaA^DI at 1.0, 2.5 and 5.0 mg ml^-1; SirA-DnaA^DI at 0.5, 1.0 and 2.5 mg ml^-1; details: both partners purified
[2] = molecular target: T1, DnaA domain I (DnaA^DI), Bacillus subtilis, His-tag removed (Bacillus subtilis (strain 168), UniProt P05648); assay: SEC-MALLS (1:1 heterodimer), Ni-NTA co-purification/pull-down, crystal structure; SirA soluble only when co-expressed with DnaA^DI; complex purified as such, not mixed from separate proteins
T1 chain: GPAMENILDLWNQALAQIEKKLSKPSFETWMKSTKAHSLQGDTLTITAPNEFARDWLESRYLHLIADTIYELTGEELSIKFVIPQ

[3] = molecular target: B3; assay: pull-down; soluble lysate of E. coli coexpressing His-DnaA^DI and untagged SirA loaded onto a HisTrap FF crude Ni-affinity column in 50 mM Tris pH 8.5, 200 mM KCl, 20 mM imidazole, 10 mM BME; washed; eluted with 500 mM imidazole; eluates normalised to DnaA^DI, SDS-PAGE with Coomassie staining, bands quantified with ImageJ; details: partners not purified
[4] = molecular target: B1; assay: as above; details: partners not purified
[5] = molecular target: B1; assay: crystal structure; native crystals, space group P2_1, two complexes per asymmetric unit; 100 mM HEPES pH 7.5, 200 mM NH4 acetate, 25% PEG 3350, 1% DMF; SAD phasing from SeMet crystals, then molecular replacement; details: both partners purified

Q: Which results are given for B1?
A: stoichiometry N [1]: 1; binding result [2]: binds

B2: SirA Y18A, Bacillus subtilis (natural protein, B. subtilis, UniProt P45707 1-148, looked up)
chain: MERHYYTYLIKEEFANHAFGRESVMFELFQDYHWTSLEKQQYEMTEKQIQYITQPIPILHMHQRLKMNLNKTDYRQLDYIYRIALPKAKGHATFMMKEHMIEIVASGDYEAETIFFEVLRKVSPCFLAMDFNSKRYGWLNPVKERNFV
notes: SirA, B. subtilis, untagged, with Tyr18Ala; also called Tyr18Ala; source: E. coli BL21, coexpressed with His-DnaA^DI, in soluble lysate
Q: Which “fold lower recovery relative to wild type SirA” value [3] does the source give for B2 here?
A: Its value is 2.5 fold.

Q: Does B3 bind [4]?
A: Result: binds

B4: SirA F14A, Bacillus subtilis (natural protein, B. subtilis, UniProt P45707 1-148, looked up)
chain: MERHYYTYLIKEEAANHYFGRESVMFELFQDYHWTSLEKQQYEMTEKQIQYITQPIPILHMHQRLKMNLNKTDYRQLDYIYRIALPKAKGHATFMMKEHMIEIVASGDYEAETIFFEVLRKVSPCFLAMDFNSKRYGWLNPVKERNFV
notes: SirA, B. subtilis, untagged, with Phe14Ala; also called Phe14Ala; source: E. coli BL21, coexpressed with His-DnaA^DI, in soluble lysate
Q: B4 was tested. Which “fold lower recovery relative to wild type SirA” value [3] did it give?
A: The value was 1.5 fold.

B5: SirA Q48A, Bacillus subtilis (natural protein, B. subtilis, UniProt P45707 1-148, looked up)
chain: MERHYYTYLIKEEFANHYFGRESVMFELFQDYHWTSLEKQQYEMTEKAIQYITQPIPILHMHQRLKMNLNKTDYRQLDYIYRIALPKAKGHATFMMKEHMIEIVASGDYEAETIFFEVLRKVSPCFLAMDFNSKRYGWLNPVKERNFV
notes: SirA, B. subtilis, untagged, with Gln48Ala; also called Gln48Ala; source: E. coli BL21, coexpressed with His-DnaA^DI, in soluble lysate
Q: B5 was tested. Which “fold lower recovery relative to wild type SirA” value [3] did it give?
A: The value was 1.5 fold.

Q: Does B6 bind [5]?
A: Result: binds
